Data reported in publication PMC9243137, “Structural and electrophysiological basis for the modulation of KCNQ1 channel currents by ML277” (Nature Communications, 2022).

Columns and labels:
[1] = biological target: the molecule itself; assay: cryo-EM structure; xKCNQ1(67-610) co-expressed with CaM in tsA201 cells, complex purified in DDM/CHS, 0.5 mM CaCl2; grids without and with 100 uM ML277; C4 symmetry imposed
Calmodulin = biological target: T1, Calmodulin (UniProt P0DP23 1-149); assay: as above; conditions: both partners purified
T1 construct: Calmodulin; DNA a gift of the Wayne Chen lab; model built from residues 10 to 146; Sample held 0.5 mM CaCl2; also called CaM; Ca2+/CaM; source: tsA201 cells, co-transfected with xKCNQ1 (pcDNA3), co-purified with xKCNQ1

binding result (Calmodulin): binds
B1: Xenopus laevis KCNQ1, residues 67-610 (truncated, biochemically stable form) (domain or fragment, UniProt P70057 67-610, looked up)
chain: ATDPPRPTINLDPRVSIYSGRRPLLSRTNIQGRVYNFLERPTGWKCFVYHFTVFLIVLICLIFSVLSTIQQYNNLATETLFWMEIVLVVFFGAEYVVRLWSAGCRSKYVGVWGRLRFARKPISVIDLIVVVASVIVLCVGSNGQVFATSAIRGIRFLQILRMLHVDRQGGTWRLLGSVVFIHRQELITTLYIGFLGLIFSSYFVYLAEKDAIDSSGEYQFGSYADALWWGVVTVTTIGYGDKVPQTWIGKTIASCFSVFAISFFALPAGILGSGFALKVQQKQRQKHFNRQIPAAASLIQTAWRCYAAENPDSATWKIYIRKQSRNHHLMSPSPKPKKSAMVKKKKIRTERDEGSTDKMLNIPHITYDHVADDRKNDGYSVESYENTVRKPFGFLDPSTGPFIRTSSFTDDLDMEGDTLLTPITHISELKEHHRAAIKVIRRMQYFVAKKKFQQARKPYDVRDVIEQYSQGHLNLMVRIKELQRRLDQSLGKPSLFLSVSDKVKDKGINTIGSRLNRVEDKVTQMDHKLNLITDMLHHLLTNQQ
notes: KCNQ1 (Kv7.1) of Xenopus laevis, NP_001116347.1, residues 67-610; N- and C-termini truncated as in Sun and MacKinnon 2017; model built from residues 95 to 556 (67-94, 206-214, 385-496 disordered); Human KCNQ1 numbering is +10 against xKCNQ1; A preScission protease site stood between the channel and the C-terminal GFP-6xHis tag; residues of the site may be left after cleavage; Four subunits (C4 …)
binding result [1]: binds
